From paper PMC7854383, “Cellular Uptake of Psychostimulants – Are High- and Low-Affinity Organic Cation Transporters Drug Traffickers?” (Frontiers in Pharmacology, 2021)
Changes are numbered by the printed parent chain. Names may count otherwise.

Assays:
SERT = SERT (Homo sapiens, UniProt P31645); test: Screening of cellular uptake at 1 µM, SERT-overexpressing HEK293 cells over empty vector control cells; type: in vitro ADME; settings: 2 min
OCT3 = target: T1, OCT3 (Homo sapiens, UniProt O75751); test: Screening of cellular uptake at 1 µM, OCT3-overexpressing HEK293 cells over empty vector control cells; type: in vitro ADME; settings: 2 min
T1 construct: Koepsell and Gorbulev (University of Würzburg); host or cells: HEK293
T1 sequence (O75751 1-556): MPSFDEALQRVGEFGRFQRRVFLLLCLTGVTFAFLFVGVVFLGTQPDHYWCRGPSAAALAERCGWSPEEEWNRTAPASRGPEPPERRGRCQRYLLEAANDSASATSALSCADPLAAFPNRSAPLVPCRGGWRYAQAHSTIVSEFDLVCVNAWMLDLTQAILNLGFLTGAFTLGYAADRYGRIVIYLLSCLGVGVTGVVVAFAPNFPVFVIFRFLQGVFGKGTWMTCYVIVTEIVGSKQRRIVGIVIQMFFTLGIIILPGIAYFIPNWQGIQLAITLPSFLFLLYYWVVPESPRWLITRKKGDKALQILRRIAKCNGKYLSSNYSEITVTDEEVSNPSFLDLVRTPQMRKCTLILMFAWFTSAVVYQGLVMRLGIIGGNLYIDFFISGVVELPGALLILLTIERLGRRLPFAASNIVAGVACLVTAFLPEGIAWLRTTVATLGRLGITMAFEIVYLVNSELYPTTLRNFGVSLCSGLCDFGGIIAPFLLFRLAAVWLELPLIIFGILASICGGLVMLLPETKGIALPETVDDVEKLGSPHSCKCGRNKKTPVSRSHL
Description: (§1) Koepsell and Gorbulev (University of Würzburg, Germany).
(§2) Eighteen psychostimulants and hallucinogens were initially screened for their potential to be substrates for different polyspecific OCTs and high-affinity monoamine neurotransmitter transporters (Figure 3), as well as for the efflux transporter MATE2-K (Supplementary Figure S1).

OCT2 = target: T2, OCT2 (Homo sapiens, UniProt O15244); test: Screening of cellular uptake at 1 µM, OCT2-overexpressing HEK293 cells over empty vector control cells; settings: 2 min
T2 sequence (O15244 1-555 S270A): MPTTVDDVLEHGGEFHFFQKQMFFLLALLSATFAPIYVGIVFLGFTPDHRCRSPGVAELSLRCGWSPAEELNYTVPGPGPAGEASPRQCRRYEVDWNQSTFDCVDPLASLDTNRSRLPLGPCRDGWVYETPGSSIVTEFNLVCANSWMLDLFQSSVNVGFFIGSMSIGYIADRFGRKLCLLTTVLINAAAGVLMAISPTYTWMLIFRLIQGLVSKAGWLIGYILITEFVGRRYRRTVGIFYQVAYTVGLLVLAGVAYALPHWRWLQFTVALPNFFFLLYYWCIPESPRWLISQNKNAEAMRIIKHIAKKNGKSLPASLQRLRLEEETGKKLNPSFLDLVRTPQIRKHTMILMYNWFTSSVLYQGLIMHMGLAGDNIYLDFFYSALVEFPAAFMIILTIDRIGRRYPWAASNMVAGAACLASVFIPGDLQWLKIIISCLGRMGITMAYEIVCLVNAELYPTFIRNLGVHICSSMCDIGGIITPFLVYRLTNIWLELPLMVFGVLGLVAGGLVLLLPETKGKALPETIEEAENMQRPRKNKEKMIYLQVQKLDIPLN
Description: as §1, §2

wild-type OCT2 = target: T3, wild-type OCT2 (Homo sapiens, UniProt O15244); test: Concentration-dependent transport by wild-type OCT2 in HEK293 cells; settings: for vmax: OCT2 WT
T3 sequence (O15244 1-555 S270A): T2 sequence (O15244 1-555 S270A)

[1] = cited from earlier work
OCT2 variant A270S = target: T4, OCT2 variant A270S (Homo sapiens, UniProt O15244); test: Concentration-dependent transport by OCT2 variant A270S in HEK293 cells; settings: OCT2 A270S
T4 sequence (O15244 1-555): T2 sequence (O15244 1-555 S270A) with A270S

not read [2] = substrate: CN(C)CCc1c[nH]c2ccccc12; test: not read; settings: pH 7.4
not read [3] = substrate: CNC(C)Cc1ccc(OC)cc1; test: not read; settings: pH 7.4
not read [4] = substrate: CN[C@@H](C)[C@H](O)c1ccccc1; test: not read; settings: pH 7.4, 37.0 °C
not read [5] = substrate: CN[C@@H](C)Cc1ccccc1; test: not read; settings: other: OCT2 A270S; pH 7.4; 37.0 °C
not read [6] = substrate: COc1cc(CCN)cc(OC)c1OC; test: not read; settings: other: OCT1*1 (WT); net transport, 2 min; pH 7.4; 37.0 °C

Sequence of SERT (P31645 whole entry): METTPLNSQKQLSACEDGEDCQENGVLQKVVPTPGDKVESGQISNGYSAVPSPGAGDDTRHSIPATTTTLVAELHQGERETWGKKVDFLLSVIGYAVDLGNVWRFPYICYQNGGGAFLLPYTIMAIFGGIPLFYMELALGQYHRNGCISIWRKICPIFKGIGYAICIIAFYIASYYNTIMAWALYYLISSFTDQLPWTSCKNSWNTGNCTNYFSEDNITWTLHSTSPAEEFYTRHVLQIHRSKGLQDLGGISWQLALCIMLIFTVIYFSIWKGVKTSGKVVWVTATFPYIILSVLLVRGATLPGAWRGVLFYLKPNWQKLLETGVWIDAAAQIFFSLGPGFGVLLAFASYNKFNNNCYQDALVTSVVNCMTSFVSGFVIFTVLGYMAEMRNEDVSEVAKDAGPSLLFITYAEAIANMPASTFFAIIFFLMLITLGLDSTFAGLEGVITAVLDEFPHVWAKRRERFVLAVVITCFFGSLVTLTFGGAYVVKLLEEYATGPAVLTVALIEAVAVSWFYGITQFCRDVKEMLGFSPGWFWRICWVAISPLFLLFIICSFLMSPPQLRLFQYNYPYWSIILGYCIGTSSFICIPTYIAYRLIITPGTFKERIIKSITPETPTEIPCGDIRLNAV

For `COc1ccc(CC(C)N)cc1` (stereo not shown) [PMA, para-methoxyamphetamine], the “ratio of uptake in transporter-transfected cells over empty vector control cells” value (“ratio of uptake” for short) (SERT) was “slightly higher (albeit still low) uptake”.

For `CC(N)Cc1ccccc1` (stereo not shown) [Amphetamine], the “ratio of uptake” value (OCT3) was “does not appear to be a substrate”.

For `CN[C@@H](C)Cc1ccccc1` [Methylamphetamine], the “ratio of uptake” value (OCT2) was 4- to 6 fold, the vmax (wild-type OCT2; listed as Methamphetamine) was 70.7 (± 8.3) pmol × mg protein^-1 × min^-1 and the vmax (wild-type OCT2; listed as methamphetamine) was 70.7 ± 8.3 pmol × mg protein^-1 × min^-1. For the same molecule, the Km at 2 min (wild-type OCT2; human, pH 7.4) was 11.9 µM, the renal elimination ([1]; ref Toennes and Kauert, 2002, www.dosing.de and www.drugbank.ca) was 30–54% and the vmax (OCT2 variant A270S) was 34.5 (± 8.5) pmol × mg protein^-1 × min^-1.

In the case of `C[C@H](N)C(=O)c1ccccc1` [Cathinone], the “renal elimination (unchanged in urine)” value ([1]; ref Kalix and Braenden, 1985, Toennes and Kauert, 2002) is listed as 2–7%.

In the case of `CNC(C)Cc1ccc(OC)cc1` (stereo not shown) [PMMA, para-methoxymethamphetamine], the “ratio of uptake” value (OCT2) is reported as “approximately 3 fold” and the “ratio of uptake” value (SERT) is reported as “slightly higher (albeit still low) uptake”.

For `CN(C)CCc1c[nH]c2ccccc12` [DMT, dimethyltryptamine], the “ratio of uptake” value (OCT2) is listed as “approximately 3 fold” and the “excreted unchanged in urine” value ([1]; following intramuscular administration, ref Sitaram et al., 1987, Barker, 2018) is listed as 0.16%.

B1: wild-type OCT2 (Homo sapiens; S270A) (protein)
chain: T2 sequence (O15244 1-555 S270A)
For B1, the Km (not read [2]; other: OCT2 WT) was 13.0 (± 3.7) μM, the Vmax (not read [2]; other: OCT2 WT) was 296.7 (± 23.3) pmol × mg protein^-1 × min^-1 and the Km (not read [3]; other: OCT2 WT) was 7.9 (± 2.6) μM. For the same molecule, the Vmax (not read [3]; other: OCT2 WT) was 225.1 (± 19.3) pmol × mg protein^-1 × min^-1, the Km (not read [4]; other: OCT2 WT) was 15.7 (± 4.6) μM and the Vmax (not read [4]; other: OCT2 WT) was 417.8 (± 35.6) pmol × mg protein^-1 × min^-1.

B2: OCT2 variant A270S (Homo sapiens) (protein)
chain: T2 sequence (O15244 1-555 S270A) with A270S
For B2, the Km (not read [2]; other: OCT2 A270S) was 14.2 (± 7.9) μM, the Vmax (not read [2]; other: OCT2 A270S) was 164.2 (± 25.9) pmol × mg protein^-1 × min^-1 and the Km (not read [3]; other: OCT2 A270S) was 14.4 (± 8.6) μM. For the same molecule, the Vmax (not read [3]; other: OCT2 A270S) was 172.1 (± 31.5) pmol × mg protein^-1 × min^-1, the Km (not read [5]) was 24.3 (± 17.0) μM and the Km (not read [4]; other: OCT2 A270S) was 14.7 (± 4.1) μM. For the same molecule, the Vmax (not read [4]; other: OCT2 A270S) was 229.5 (± 18.2) pmol × mg protein^-1 × min^-1.

B3: OCT1*1 (WT) (Homo sapiens) (protein)
chain: MPTVDDILEQVGESGWFQKQAFLILCLLSAAFAPICVGIVFLGFTPDHHCQSPGVAELSQRCGWSPAEELNYTVPGLGPAGEAFLGQCRRYEVDWNQSALSCVDPLASLATNRSHLPLGPCQDGWVYDTPGSSIVTEFNLVCADSWKLDLFQSCLNAGFLFGSLGVGYFADRFGRKLCLLGTVLVNAVSGVLMAFSPNYMSMLLFRLLQGLVSKGNWMAGYTLITEFVGSGSRRTVAIMYQMAFTVGLVALTGLAYALPHWRWLQLAVSLPTFLFLLYYWCVPESPRWLLSQKRNTEAIKIMDHIAQKNGKLPPADLKMLSLEEDVTEKLSPSFADLFRTPRLRKRTFILMYLWFTDSVLYQGLILHMGATSGNLYLDFLYSALVEIPGAFIALITIDRVGRIYPMAMSNLLAGAACLVMIFISPDLHWLNIIIMCVGRMGITIAIQMICLVNAELYPTFVRNLGVMVCSSLCDIGGIITPFIVFRLREVWQALPLILFAVLGLLAAGVTLLLPETKGVALPETMKDAENLGRKAKPKENTIYLKVQTSEPSGT
For B3, the Km (not read [6]) was 24.3 (±6.3) µM and the Vmax (not read [6]) was 0.000642 µmol/min/mg.
